Laboratory results as given in patent US12397061B2, “Systems, methods, and compositions for the generation of water-soluble cannabinoids utilizing fatty-acid binding proteins and fatty-acid binding-like proteins as cannabinoid-carriers” (Trait Biosciences, Inc., priority 2019, dated 2025).

How the values were obtained:
cannabinoid receptor = details: cited from earlier work
[1] = FABP binding to cannabinoids by ANS displacement (THC as ligand); details: for binding to THC by ANS displacement: 2 uM protein, 20 uM ANS, 33 uM THC, decrease in fluorescence vs protein without ligand
[2] = FABP binding to cannabinoids by ANS displacement (CBD as ligand); details: for binding to CBD by ANS displacement: 2 uM protein, 20 uM ANS, 33 uM CBD, decrease in fluorescence vs protein without ligand
[3] = listed as Wild type FABP from chicken

Molecule | binding to THC by ANS displacement [1] | binding to CBD by ANS displacement [2] | other results
C=C(C)[C@@H]1CCC(C)=C[C@H]1c1c(O)cc(CCCCC)cc1O [CBD, cannabidiol] |  |  | affinity for the cannabinoid receptor (cannabinoid receptor): do not have significant affinity
Chicken FABP7 WT: Wild type chicken (Gallus gallus) FABP7, SEQ ID NO. 74 (protein, listed as Gallus gallus) MVEAFCATWKLADSHNFDEYMKALGVGFAMRQVGNVTKPTVIISSEGDKVVIRTQSTFKNTEISFKLGEEFDETTPDDRNCKSVVTLDGDKLVHVQKWDGKETNFVREIKDGRMVMTLTFGDVVAVRHYEKA | no, or negligible binding | no, or negligible binding | binding to THC by ANS displacement [1, 3]: no binding; binding to CBD by ANS displacement [2, 3]: no binding
mdl_r5_0225_ro: Engineered chicken (Gallus gallus) FABP7 variant selected by Rosetta score, SEQ ID NO. 79 (protein, listed as Gallus gallus) MVEAFCATWKLADSHNMDEALKAWGVGFAIRQVANVTKPTVIISSEGDKVVIRMQSTFKNTEISFKLGEEFDETTADDRNCKSVVTLDGDKLVHVQKWDGKETNVVREIKDGRMVMTVTFGDVVAVRHYEKA | not THC | binding to CBD | 
Plant FABP WT: Wild type FABP from the plant Rhodamnia argentea, SEQ ID NO. 77 (protein, listed as Rhodamnia argentea) MTEFAGVYEFVKDDGKFEEILKAMDVNFLIRKVAGKMNPNTAIDVLDDGKMAFKTITPLKTVEIHFELGKEYENKRLDGTVVKGIVTRDGNKLIQEQMSEPKFKVIRELDGPEKLIVTWMCKDIVCVREYKRIQT | bind | bind | 
mdl_r3_1403_sm: Engineered chicken (Gallus gallus) FABP7 variant selected by Smina score, SEQ ID NO. 80 (protein, listed as Gallus gallus) MVEAFCATWKLADSHNQDEGLKALGVGFAMRQLFNVDKPTVIISSEGDKVVIRIEGTVKNTEISFKLGEEFDETTADDRNCKSVVTLDGDKLVHVQKWDGKETNVVREIKDGRMVATFTFGDVVAVAHYEKA | no binding | no binding | 
mdl_r5_1652_ro: Rosetta-engineered pig (Sus scrofa) FABP1 variant, SEQ ID NO. 81 (protein, listed as Sus scrofa) MNFSGKYQVQSQENFEAFMKAVGQPDELIQKGKDIKGTSEIVQNGKHFKVTITTGSKVVQAEFTLGEECEAETDTGEKVKVVVQLEGDNKAVVTAKGIKAVFELNGDIITATATLGDIVFKRISKR |  |  | binding to THC relative to the wild type based on relative change in fluorescence ([1]; FIG. 7, ANS displacement): improved binding; binding to CBD relative to the wild type based on relative change in fluorescence ([2]; FIG. 7, ANS displacement): improved binding
